Assay results: US6958236B2, “Control of gene expression in plants” (priority 2000, dated 2005)

System: pCGS154 reporter
Assay: Transient transfection of S2 Drosophila cells with luciferase reporter and EcR receptor plasmids
Type: cell-based
Settings: for Assay # 1 Fold Activation With Chemistry / Assay # 2 Fold Activation With Chemistry: Example 6, 0.2 μM tebufenozide vs without chemistry, normalized to pCGS154 reporter without receptor; for No Chemistry (luciferase activity as ratio to pCGS154 reporter without chemistry): reporter CGS154, no chemical ligand
Description: An in vivo cell based assay is designed to measure transcriptional activation by the receptors of a reporter plasmid. S2 Drosophila cells (ATCC CRL-1963) are transiently transfected with luciferase reporter and receptor expression plasmids using the calcium phosphate precipitation procedure (Di Nocera and David (1983) PNAS 80, 7095-7098). S2 cells are plated in 96 well format at a density of 2×10^5 in 166.6 μl of Schneider's Drosophila media supplemented with antibiotics and 10% heat inactivated fetal bovine serum (GIBO-BRL). The following day, 33.4 μl of a calcium phosphate precipitate containing 3-6 ng of pCGS154 reporter plasmid, 3-6 ng of EcR receptor plasmid along with salmon sperm DNA to a total of 400 ng DNA per well is added. Chemical ligands are added 16-24 hours after DNA addition to the cells. Cells are then harvested and extracted 24 hours after chemistry addition following the procedures for the luciferase assay by centrifuging and resuspending the cell pellets in 100 μl of cell culture lysis reagent (Promega). Luciferase activity is quantitated using chemiluminescence (Promega) using an analytical luminescence model 2001 luminometer.
S2 cells contain Drosophila EcR and USP. The endogenous USP can be used as the heterodimerization partner for EcR or exogenous USP expression plasmid can be added to the assay.
To compare the activities of Manduca and Drosophila EcR, S2 cells are transiently transfected using the above procedure with the reporter plasmid pCGS 154 and either full-length Drosophila EcR, DDV, full-length Manduca EcR, or MMV. Tebufenozide at 0.2 µM and 2 μM is used as the chemical ligand. Luciferase assays are performed as described above. All of the results are normalized as a ratio of activity to the light unit value for the pCGS154 reporter without chemistry.
The activities of the EcR-VP16 chimeras are compared by transiently transfecting S2 cells as described in Example 3. Tebufenozide is added to the cells at 0.2 μM concentration. Results are expressed as fold activation, a ratio of the activity of the constructs with chemistry added as compared to activity of the constructs without chemistry. All results are normalized to the luciferase activity of the pCGS154 reporter without receptor addition.
The activities of the EcR-VP16 chimeras are compared by transiently transfecting S2 cells as in Example 3. Tebufenozide is added to the cells at 0.2 μM concentration. Results are expressed as fold activation of constructs with chemistry as compared to without chemistry. All results are normalized to the luciferase activity of the pCGS154 reporter without receptor.
The activities of the EcR-VP16 chimeras are compared by transiently transfecting S2 cells as in Example 3. Tebufenozide is added to the cells at 0.2 μM concentration. Results are expressed as fold activation of constructs with chemistry as compared to without chemistry addition. All results are normalized to the luciferase activity of the pCGS154 reporter without receptor.

B1: MMV: EcR chimera: Manduca sexta C+D and E domains, VP16; SEQ ID NO:93-94 (protein)
chain: MGREELSPASSINGCSTDGEPRRQKKGPAPRQQEELCLVCGDRASGYHYNALTCEGCKGFFRRSVTKNAVYICKFGHACEMDMYMRRKCQECRLKKCLAVGMRPECVVPESTCKNKRREKEAQREKDKLPVSTTTVDDHMPAIMQCDPPPPEAARIHEVVPRFLTEKLMEQNRLKNVTPLSANQKSLIARLVWYQEGYEQPSEEDLKRVTQTWQLEEEEEEETDMPFRQITEMTILTVQLIVEFAKGLPGFSKISQSDQITLLKASSSEVMMLRVARRYDAATDSVLFANNQAYTRDNYRKAGMSYVIEDLLHFCRCMYSMSMDNVHYALLTAIVIFSDRPGLEQPLLVEEIQRYYLKTLRVYILNQHSASPRCAVLFGKILGVLTELRTLGTQNSNMCISLKLKNRKLPPFLEEIWDVAEVSTTKLAPPTDVSLGDELHLDGEDVAMAHADALDDFDLDMLGDGDSPGPGFTPHDSAPYGALDMADFEFEQMFTDALGIDEYGG
Assay # 1 Fold Activation With Chemistry: 87.65 fold | Assay # 2 Fold Activation With Chemistry: 151.06 fold | Fold Activation With Chemistry Assay #1 (Example 7, 0.2 μM tebufenozide): 719.2 fold | Fold Activation With Chemistry Assay #2 (Example 7, 0.2 μM tebufenozide): 595.1 fold | No Chemistry (luciferase activity as ratio to pCGS154 reporter without chemistry): 1

B2: LMV: EcR chimera: Locusta migratoria C+D domains, Manduca sexta E domain, VP16; SEQ ID NO:83-84 (protein)
chain: MGREDLSPLSSLNGYSADSCDAKKKKGAAPRQQEELCLVCGDRASGYHYNALTCEGCKGFFRRSITKNAVYQCKYGNNCEIDMYMRRKCQECRLKKCLTVGMRPECVVPEYQCAVKRKEKKAQKDKDKPNSTTNGSPEVMMLKDIDAKVEPERPLSNGIKPVSPEQEELIHRLVWYQEGYEQPSEEDLKRVTQTWQLEEEEEEETDMPFRQITEMTILTVQLIVEFAKGLPGFSKISQSDQITLLKASSSEVMMLRVARRYDAATDSVLFANNQAYTRDNYRKAGMSYVIEDLLHFCRCMYSMSMDNVHYALLTAIVIFSDRPGLEQPLLVEEIQRYYLKTLRVYILNQHSASPRCAVLFGKILGVLTELRTLGTQNSNMCISLKLKNRKLPPFLEEIWDVAEVSTTKLAPPTDVSLGDELHLDGEDVAMAHADALDDFDLDMLGDGDSPGPGFTPHDSAPYGALDMADFEFEQMFTDALGIDEYGG
Fold Activation With Chemistry (Example 6, third column (LLV, LMV), 0.2 μM tebufenozide): 48.8 fold

B3: DDV: EcR chimera: Drosophila melanogaster C+D and E domains, VP16; SEQ ID NO:95-96 (protein)
chain: MGRDDLSPSSSLNGYSANESCDAKKSKKGPAPRVQEELCLVCGDRASGYHYNALTCEGCKGFFRRSVTKSAVYCCKFGRACEMDMYMRRKCQECRLKKCLAVGMRPECVVPENQCAMKRREKKAQKEKDKMTTSPSSQHGGNGSLASGGGQDFVKKEILDLMTCEPPQHATIPLLPDEILAKCQARNIPSLTYNQLAVIYKLIWYQDGYEQPSEEDLRRIMSQPDENESQTDVSFRHITEITILTVQLIVEFAKGLPAFTKIPQEDQITLLKACSSEVMMLRMARRYDHSSDSIFFANNRSYTRDSYKMAGMADNIEDLLHFCRQMFSMKVDNVEYALLTAIVIFSDRPGLEKAQLVEAIQSYYIDTLRIYILNRHCGDSMSLVFYAKLLSILTELRTLGNQNAEMCFSLKLKNRKLPKFLEEIWDVHAIPPKLAPPTDVSLGDELHLDGEDVAMAHADALDDFDLDMLGDGDSPGPGFTPHDSAPYGALDMADFEFEQMFTDALGIDEYGG
Assay # 1 Fold Activation With Chemistry: 1.01 fold | Assay # 2 Fold Activation With Chemistry: 0.68 fold | No Chemistry (luciferase activity as ratio to pCGS154 reporter without chemistry): 1

B4: MaFL: full-length Manduca EcR expression cassette in pPacU (protein, UniProt P49883 1-556, looked up)
chain: MRRRWSNNGCFPLRMFEESSSEVTSSSAFGMPAAMVMSPESLASPEYGGLELWSYDETMTNYPAQSLLGACNAPQQQQQQQQQQPSAQPLPSMPLPMPPTTPKSENESMSSGREELSPASSINGCSTDGEPRRQKKGPAPRQQEELCLVCGDRASGYHYNALTCEGCKGFFRRSVTKNAVYICKFGHACEMDMYMRRKCQECRLKKCLAVGMRPECVVPESTCKNKRREKEAQREKDKLPVSTTTVDDHMPAIMQCDPPPPEAARIHEVVPRFLTEKLMEQNRLKNVTPLSANQKSLIARLVWYQEGYEQPSEEDLKRVTQTWQLEEEEEEETDMPFRQITEMTILTVQLIVEFAKGLPGFSKISQSDQITLLKASSSEVMMLRVARRYDAATDSVLFANNQAYTRDNYRKAGMSYVIEDLLHFCRCMYSMSMDNVHYALLTAIVIFSDRPGLEQPLLVEEIQRYYLKTLRVYILNQHSASPRCAVLFGKILGVLTELRTLGTQNSNMCISLKLKNRKLPPFLEEIWDVAEVSTTQPTPGVAAQVTPIVVDNPAAL
modifications: full-length
notes: full-length Manduca EcR expression cassette in pPacU
No Chemistry (luciferase activity as ratio to pCGS154 reporter without chemistry): 1

B5: DrosFL: full-length Drosophila EcR expression cassette in pPacU (protein, UniProt P34021 1-878, looked up)
chain: MKRRWSNNGGFMRLPEESSSEVTSSSNGLVLPSGVNMSPSSLDSHDYCDQDLWLCGNESGSFGGSNGHGLSQQQQSVITLAMHGCSSTLPAQTTIIPINGNANGNGGSTNGQYVPGATNLGALANGMLNGGFNGMQQQIQNGHGLINSTTPSTPTTPLHLQQNLGGAGGGGIGGMGILHHANGTPNGLIGVVGGGGGVGLGVGGGGVGGLGMQHTPRSDSVNSISSGRDDLSPSSSLNGYSANESCDAKKSKKGPAPRVQEELCLVCGDRASGYHYNALTCEGCKGFFRRSVTKSAVYCCKFGRACEMDMYMRRKCQECRLKKCLAVGMRPECVVPENQCAMKRREKKAQKEKDKMTTSPSSQHGGNGSLASGGGQDFVKKEILDLMTCEPPQHATIPLLPDEILAKCQARNIPSLTYNQLAVIYKLIWYQDGYEQPSEEDLRRIMSQPDENESQTDVSFRHITEITILTVQLIVEFAKGLPAFTKIPQEDQITLLKACSSEVMMLRMARRYDHSSDSIFFANNRSYTRDSYKMAGMADNIEDLLHFCRQMFSMKVDNVEYALLTAIVIFSDRPGLEKAQLVEAIQSYYIDTLRIYILNRHCGDSMSLVFYAKLLSILTELRTLGNQNAEMCFSLKLKNRKLPKFLEEIWDVHAIPPSVQSHLQITQEENERLERAERMRASVGGAITAGIDCDSASTSAAAAAAQHQPQPQPQPQPSSLTQNDSQHQTQPQLQPQLPPQLQGQLQPQLQPQLQTQLQPQIQPQPQLLPVSAPVPASVTAPGSLSAVSTSSEYMGGSAAIGPITPATTSSITAAVTASSTTSAVPMGNGVGVGVGVGGNVSMYANAQTAMALMGVALHSHQEQLIGGVAVKSEHSTTA
modifications: full-length
notes: full-length Drosophila EcR expression cassette in pPacU
No Chemistry (luciferase activity as ratio to pCGS154 reporter without chemistry): 1

B6: DMV: EcR chimera: Drosophila melanogaster C+D domains, Manduca sexta E domain, VP16; SEQ ID NO:71-72 (protein)
chain: MGRDDLSPSSSLNGYSANESCDAKKSKKGPAPRVQEELCLVCGDRASGYHYNALTCEGCKGFFRRSVTKSAVYCCKFGRACEMDMYMRRKCQECRLKKCLAVGMRPECVVPENQCAMKRREKKAQKEKDKMTTSPSSQHGGNGSLASGGGQDFVKKEILDLMTCEPPQHATIPLLPDEILAKCQARNIPSLTYNQLAVIYKLIWYQEGYEQPSEEDLKRVTQTWQLEEEEEEETDMPFRQITEMTILTVQLIVEFAKGLPGFSKISQSDQITLLKASSSEVMMLRVARRYDAATDSVLFANNQAYTRDNYRKAGMSYVIEDLLHFCRCMYSMSMDNVHYALLTAIVIFSDRPGLEQPLLVEEIQRYYLKTLRVYILNQHSASPRCAVLFGKILGVLTELRTLGTQNSNMCISLKLKNRKLPPFLEEIWDVAEVSTTKLAPPTDVSLGDELHLDGEDVAMAHADALDDFDLDMLGDGDSPGPGFTPHDSAPYGALDMADFEFEQMFTDALGIDEYGG
Assay # 1 Fold Activation With Chemistry: 8.67 fold | Assay # 2 Fold Activation With Chemistry: 3.72 fold
